From publication PMC2778552

Biological target: T1, human recombinant aromatase (human) (UniProt P11511)
T1 sequence: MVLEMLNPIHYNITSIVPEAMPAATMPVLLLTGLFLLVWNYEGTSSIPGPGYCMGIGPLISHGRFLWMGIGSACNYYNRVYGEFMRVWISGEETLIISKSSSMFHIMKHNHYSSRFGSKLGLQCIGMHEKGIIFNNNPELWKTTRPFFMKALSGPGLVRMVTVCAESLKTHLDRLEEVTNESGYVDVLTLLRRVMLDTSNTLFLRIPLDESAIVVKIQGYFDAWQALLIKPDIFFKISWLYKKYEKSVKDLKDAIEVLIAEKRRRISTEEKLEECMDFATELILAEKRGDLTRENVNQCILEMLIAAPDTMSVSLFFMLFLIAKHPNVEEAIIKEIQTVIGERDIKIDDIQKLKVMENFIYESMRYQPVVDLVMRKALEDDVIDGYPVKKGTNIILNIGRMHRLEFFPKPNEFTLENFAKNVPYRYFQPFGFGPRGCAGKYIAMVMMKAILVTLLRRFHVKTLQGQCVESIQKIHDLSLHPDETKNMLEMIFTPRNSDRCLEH

B1: NADPH-cytochrome P450 reductase (enzyme)
chain: MGDSHEDTSATMPEAVAEEVSLFSTTDMVLFSLIVGVLTYWFIFRKKKEEIPEFSKIQTTAPPVKESSFVEKMKKTGRNIIVFYGSQTGTAEEFANRLSKDAHRYGMRGMSADPEEYDLADLSSLPEIDKSLVVFCMATYGEGDPTDNAQDFYDWLQETDVDLTGVKFAVFGLGNKTYEHFNAMGKYVDQRLEQLGAQRIFELGLGDDDGNLEEDFITWREQFWPAVCEFFGVEATGEESSIRQYELVVHEDMDVAKVYTGEMGRLKSYENQKPPFDAKNPFLAAVTANRKLNQGTERHLMHLELDISDSKIRYESGDHVAVYPANDSALVNQIGEILGADLDVIMSLNNLDEESNKKHPFPCPTTYRTALTYYLDITNPPRTNVLYELAQYASEPSEQEHLHKMASSSGEGKELYLSWVVEARRHILAILQDYPSLRPPIDHLCELLPRLQARYYSIASSSKVHPNSVHICAVAVEYEAKSGRVNKGVATSWLRAKEPAGENGGRALVPMFVRKSQFRLPFKSTTPVIMVGPGTGIAPFMGFIQERAWLREQGKEVGETLLYYGCRRSDEDYLYREELARFHKDGALTQLNVAFSREQAHKVYVQHLLKRDREHLWKLIHEGGAHIYVCGDARNMAKDVQNTFYDIVAEFGPMEHTQAVDYVKKLMTKGRYSLDVWS
- Km of aromatase for reductase from Lineweaver–Burk plots; tritiated water release from [1β-3H(N)]-androstenedione, 50 nM pure aromatase, reductase 1 nM to 20 nM, androstenedione 10 nM to 500 nM, 37°C: 1 nM
